{
  "source": "paper PMC12370991",
  "about": "“Visualizing acyl carrier protein interactions within a crosslinked type I polyketide synthase” (Nature Communications, 2025)",
  "key": {"E. coli FabA (DH)": {"biological_target": "T1, E. coli FabA (DH) (E. coli, UniProt P0A6Q3 2-172)", "T1 construct": "FabA, type II FAS dehydratase, E. coli", "T1 sequence": "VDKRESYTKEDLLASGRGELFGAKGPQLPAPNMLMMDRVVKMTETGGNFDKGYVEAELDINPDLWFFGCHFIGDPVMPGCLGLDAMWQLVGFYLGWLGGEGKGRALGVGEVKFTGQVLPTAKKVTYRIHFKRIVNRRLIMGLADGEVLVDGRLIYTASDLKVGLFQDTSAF", "test": "cross-linking", "conditions": "both partners purified"}, "E. coli FabF (KS)": {"biological_target": "T2, E. coli FabF (KS) (E. coli, UniProt P0AAI5 1-413)", "T2 construct": "FabF, type II FAS ketosynthase, E. coli", "T2 sequence (looked up)": "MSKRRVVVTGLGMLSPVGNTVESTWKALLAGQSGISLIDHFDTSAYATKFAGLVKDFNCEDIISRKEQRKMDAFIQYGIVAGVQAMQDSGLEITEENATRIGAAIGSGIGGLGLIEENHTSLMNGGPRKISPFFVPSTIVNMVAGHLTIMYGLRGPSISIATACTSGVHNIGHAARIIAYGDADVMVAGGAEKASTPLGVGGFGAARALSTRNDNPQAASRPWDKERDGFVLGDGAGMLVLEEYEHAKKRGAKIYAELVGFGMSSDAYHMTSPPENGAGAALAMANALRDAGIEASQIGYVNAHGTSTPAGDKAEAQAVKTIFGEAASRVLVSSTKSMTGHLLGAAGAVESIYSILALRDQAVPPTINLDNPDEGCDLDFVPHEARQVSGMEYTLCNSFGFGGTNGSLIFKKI", "test": "cross-linking", "conditions": "both partners purified"}},
  "data": [
    {"binder": "E. coli crypto-AcpP (acyl carrier protein of the type II FAS loaded with a crosslinker) (natural protein, crosslinker 2, 3, 5, 6 or 8 loaded chemoenzymatically (crypto-AcpP), AcpP, acyl carrier protein of the type II fatty acid synthase, E. coli; also called E. coli ACP; source: crypto-AcpP purified by SEC) MSTIEERVKKIIGEQLGVKQEEVTNNASFVEDLGADSLDTVELVMALEEEFDTEIPDEEAEKITTVQAAIDYINGHQA", "values": [
      {"measurement": "binding result", "setting": "E. coli FabA (DH)", "result": "binds"},
      {"measurement": "binding result", "setting": "E. coli FabF (KS)", "result": "binds"}
    ]}
  ]
}
